Assay results reported in US20240425885.

Experiments:
Assay in all cases: cleavage_in_vitro
[1] = system: T1, OMNI-98 (metagenomic, unknown); conditions: TXTL; PAM NNAAATNN
T1 sequence: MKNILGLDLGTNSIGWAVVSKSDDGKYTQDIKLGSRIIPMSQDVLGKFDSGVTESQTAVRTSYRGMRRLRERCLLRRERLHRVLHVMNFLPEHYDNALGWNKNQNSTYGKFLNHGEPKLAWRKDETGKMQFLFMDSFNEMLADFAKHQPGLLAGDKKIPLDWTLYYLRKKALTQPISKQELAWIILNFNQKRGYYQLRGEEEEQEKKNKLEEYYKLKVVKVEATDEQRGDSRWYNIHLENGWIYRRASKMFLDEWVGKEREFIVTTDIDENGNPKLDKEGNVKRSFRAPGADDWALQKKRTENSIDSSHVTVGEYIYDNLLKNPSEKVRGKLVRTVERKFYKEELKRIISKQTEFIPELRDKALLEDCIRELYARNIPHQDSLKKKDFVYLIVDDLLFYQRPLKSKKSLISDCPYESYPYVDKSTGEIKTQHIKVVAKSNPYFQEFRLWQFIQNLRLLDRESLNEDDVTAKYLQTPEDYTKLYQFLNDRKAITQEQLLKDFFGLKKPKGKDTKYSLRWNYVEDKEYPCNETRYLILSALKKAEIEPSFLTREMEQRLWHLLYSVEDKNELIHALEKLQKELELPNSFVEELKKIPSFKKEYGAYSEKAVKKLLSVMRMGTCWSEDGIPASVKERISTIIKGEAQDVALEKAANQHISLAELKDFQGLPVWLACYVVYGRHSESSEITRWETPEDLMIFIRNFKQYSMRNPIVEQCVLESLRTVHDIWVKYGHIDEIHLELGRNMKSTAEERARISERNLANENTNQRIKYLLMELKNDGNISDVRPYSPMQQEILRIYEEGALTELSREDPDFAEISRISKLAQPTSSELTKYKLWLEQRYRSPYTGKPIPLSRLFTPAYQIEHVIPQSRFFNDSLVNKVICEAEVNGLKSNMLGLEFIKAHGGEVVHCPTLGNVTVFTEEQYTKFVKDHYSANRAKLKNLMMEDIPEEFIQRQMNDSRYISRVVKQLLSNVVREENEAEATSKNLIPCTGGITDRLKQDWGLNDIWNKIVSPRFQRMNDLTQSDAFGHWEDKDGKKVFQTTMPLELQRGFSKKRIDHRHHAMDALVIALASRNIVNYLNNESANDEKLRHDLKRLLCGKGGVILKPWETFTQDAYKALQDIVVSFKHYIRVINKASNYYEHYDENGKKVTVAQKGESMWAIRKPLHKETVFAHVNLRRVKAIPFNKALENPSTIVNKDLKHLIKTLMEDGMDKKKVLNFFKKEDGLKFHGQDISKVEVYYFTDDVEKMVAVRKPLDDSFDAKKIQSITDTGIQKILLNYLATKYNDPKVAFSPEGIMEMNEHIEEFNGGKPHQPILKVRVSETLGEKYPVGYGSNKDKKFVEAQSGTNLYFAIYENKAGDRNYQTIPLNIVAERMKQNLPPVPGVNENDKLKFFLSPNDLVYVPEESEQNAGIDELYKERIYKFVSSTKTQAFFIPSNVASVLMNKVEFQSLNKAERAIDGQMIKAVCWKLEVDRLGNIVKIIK

[2] = system: T2, OMNI-99 (metagenomic, unknown); conditions: TXTL; PAM NAGACNNN
T2 sequence: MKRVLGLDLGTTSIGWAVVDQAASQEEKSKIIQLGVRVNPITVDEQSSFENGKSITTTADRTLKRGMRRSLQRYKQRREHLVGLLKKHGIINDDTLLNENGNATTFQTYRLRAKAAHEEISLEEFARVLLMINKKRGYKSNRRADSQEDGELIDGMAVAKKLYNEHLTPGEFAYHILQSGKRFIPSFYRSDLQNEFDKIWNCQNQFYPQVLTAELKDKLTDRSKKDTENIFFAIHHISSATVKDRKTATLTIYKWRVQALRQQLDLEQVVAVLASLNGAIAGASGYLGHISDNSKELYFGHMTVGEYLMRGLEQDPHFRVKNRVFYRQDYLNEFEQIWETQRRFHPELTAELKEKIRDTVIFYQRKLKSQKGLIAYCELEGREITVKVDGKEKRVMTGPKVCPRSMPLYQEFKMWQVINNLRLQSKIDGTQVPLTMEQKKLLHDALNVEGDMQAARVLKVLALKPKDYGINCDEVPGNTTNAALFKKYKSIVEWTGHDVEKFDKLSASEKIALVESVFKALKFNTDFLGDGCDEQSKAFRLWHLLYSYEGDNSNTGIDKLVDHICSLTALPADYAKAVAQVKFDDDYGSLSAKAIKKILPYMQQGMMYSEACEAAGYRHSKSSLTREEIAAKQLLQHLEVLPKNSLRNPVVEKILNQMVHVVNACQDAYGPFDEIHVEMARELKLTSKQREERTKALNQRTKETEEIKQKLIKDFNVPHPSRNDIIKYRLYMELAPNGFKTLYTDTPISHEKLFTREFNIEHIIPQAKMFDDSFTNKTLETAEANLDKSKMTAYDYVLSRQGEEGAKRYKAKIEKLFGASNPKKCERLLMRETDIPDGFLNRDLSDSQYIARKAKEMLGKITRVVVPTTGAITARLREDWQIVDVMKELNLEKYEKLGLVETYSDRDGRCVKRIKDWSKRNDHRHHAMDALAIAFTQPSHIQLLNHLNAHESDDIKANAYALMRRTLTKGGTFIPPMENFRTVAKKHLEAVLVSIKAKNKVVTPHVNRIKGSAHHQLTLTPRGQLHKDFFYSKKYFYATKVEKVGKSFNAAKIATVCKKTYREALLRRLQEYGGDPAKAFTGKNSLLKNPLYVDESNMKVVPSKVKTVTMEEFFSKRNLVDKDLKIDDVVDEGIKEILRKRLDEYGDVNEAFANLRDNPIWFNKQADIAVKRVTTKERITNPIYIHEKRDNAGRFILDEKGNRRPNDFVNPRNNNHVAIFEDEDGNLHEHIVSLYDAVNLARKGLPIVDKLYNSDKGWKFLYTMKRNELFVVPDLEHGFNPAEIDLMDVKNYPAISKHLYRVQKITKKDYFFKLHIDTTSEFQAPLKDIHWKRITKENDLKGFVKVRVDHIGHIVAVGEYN

[3] = system: T3, OMNI-106 (metagenomic, unknown); conditions: TXTL; PAM NRKAACNN
T3 sequence: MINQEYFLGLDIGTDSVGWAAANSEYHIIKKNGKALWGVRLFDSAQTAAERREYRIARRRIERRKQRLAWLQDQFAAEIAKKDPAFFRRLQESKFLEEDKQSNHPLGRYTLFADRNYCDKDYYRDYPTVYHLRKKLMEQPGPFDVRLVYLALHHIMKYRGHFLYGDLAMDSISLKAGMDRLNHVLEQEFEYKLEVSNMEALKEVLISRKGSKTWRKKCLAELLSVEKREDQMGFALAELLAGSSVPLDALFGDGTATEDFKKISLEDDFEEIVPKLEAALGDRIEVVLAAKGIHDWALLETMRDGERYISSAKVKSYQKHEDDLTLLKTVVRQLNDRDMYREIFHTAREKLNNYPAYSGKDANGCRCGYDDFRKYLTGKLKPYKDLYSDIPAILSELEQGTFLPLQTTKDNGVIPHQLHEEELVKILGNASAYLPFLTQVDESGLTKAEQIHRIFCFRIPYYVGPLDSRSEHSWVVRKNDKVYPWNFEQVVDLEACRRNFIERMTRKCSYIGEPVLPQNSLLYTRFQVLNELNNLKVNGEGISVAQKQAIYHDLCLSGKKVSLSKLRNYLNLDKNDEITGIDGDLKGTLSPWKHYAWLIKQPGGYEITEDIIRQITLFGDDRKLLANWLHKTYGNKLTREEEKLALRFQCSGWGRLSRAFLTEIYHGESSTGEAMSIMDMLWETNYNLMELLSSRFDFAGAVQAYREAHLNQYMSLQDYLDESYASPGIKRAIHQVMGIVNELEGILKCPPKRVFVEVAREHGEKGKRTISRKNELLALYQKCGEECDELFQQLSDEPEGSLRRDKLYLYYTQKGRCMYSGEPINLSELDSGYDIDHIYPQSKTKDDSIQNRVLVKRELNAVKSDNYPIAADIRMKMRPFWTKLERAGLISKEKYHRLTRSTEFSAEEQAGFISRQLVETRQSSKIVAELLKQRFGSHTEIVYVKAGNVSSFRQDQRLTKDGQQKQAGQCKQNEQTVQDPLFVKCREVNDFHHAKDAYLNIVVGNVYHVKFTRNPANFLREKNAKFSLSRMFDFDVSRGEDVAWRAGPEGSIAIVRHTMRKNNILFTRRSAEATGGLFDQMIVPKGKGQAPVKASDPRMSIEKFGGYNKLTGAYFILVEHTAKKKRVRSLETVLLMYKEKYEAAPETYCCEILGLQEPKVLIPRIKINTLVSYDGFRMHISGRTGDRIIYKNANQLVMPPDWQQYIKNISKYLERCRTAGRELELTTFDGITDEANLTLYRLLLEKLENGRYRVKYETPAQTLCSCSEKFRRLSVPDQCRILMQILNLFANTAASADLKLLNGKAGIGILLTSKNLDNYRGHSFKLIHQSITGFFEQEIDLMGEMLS

[4] = system: T4, OMNI-96 (metagenomic, unknown); conditions: TXTL; PAM NYAAGNNN
T4 sequence: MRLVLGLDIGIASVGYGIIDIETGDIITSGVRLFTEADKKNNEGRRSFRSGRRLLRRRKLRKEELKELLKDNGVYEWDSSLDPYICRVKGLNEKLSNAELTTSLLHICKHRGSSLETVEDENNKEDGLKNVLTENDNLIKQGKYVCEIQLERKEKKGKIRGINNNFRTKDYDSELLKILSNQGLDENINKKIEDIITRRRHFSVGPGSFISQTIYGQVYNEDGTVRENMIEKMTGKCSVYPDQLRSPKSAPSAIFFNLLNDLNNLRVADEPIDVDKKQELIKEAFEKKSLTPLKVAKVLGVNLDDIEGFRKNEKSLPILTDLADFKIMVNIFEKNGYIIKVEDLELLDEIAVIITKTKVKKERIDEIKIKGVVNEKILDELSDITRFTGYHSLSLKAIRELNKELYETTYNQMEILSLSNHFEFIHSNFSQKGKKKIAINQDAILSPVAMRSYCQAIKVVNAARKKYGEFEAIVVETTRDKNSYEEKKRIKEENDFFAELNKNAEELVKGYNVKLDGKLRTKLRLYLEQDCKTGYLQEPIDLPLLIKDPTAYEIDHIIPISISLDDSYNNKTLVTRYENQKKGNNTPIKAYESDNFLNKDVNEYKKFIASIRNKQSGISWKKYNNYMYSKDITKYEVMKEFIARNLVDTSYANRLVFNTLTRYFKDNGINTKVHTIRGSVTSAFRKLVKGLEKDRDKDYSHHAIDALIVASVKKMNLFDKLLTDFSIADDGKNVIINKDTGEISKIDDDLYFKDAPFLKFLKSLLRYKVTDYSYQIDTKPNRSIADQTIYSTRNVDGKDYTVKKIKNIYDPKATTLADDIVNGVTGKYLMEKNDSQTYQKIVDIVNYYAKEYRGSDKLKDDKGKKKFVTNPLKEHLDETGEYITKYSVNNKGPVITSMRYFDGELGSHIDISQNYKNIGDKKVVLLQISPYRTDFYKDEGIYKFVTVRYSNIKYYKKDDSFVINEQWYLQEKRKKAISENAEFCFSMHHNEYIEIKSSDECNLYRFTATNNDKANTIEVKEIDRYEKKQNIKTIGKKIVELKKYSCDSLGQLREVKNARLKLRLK

GGAAGAGCAGAGCCUUGGUCUCGUUGUGAAUUGCUUUCGAAAGAAAGCAAUUCACAAUAAGGAUUAUUCCGUUGUGAAAACAUUUAGGACGGGGCAACUCGUCCUUUGUUUUUUU / GGAAGAGCAGAGCCTTGGTCTCNNNNNNNN / NNNNNNNNGAGACCAAGGCTCTGCTCTTCC [T2 sgRNA 9 V1 ; T2 protospacer + 8N PAM library (pbPOS T2)]
activity (1-depletion score) [1]: 0.93

GGAAGAGCAGAGCCUUGGUCUCGUUGUGAAUUGCUUUCGAAAGAAGCAAUUCACAAUAAGGAUUAUUCCGUUGUGAAAACAUCAGGAGCGGGUUCUACUCGCUCUUUUUU / GGAAGAGCAGAGCCTTGGTCTCNNNNNNNN / NNNNNNNNGAGACCAAGGCTCTGCTCTTCC [T2 sgRNA 10 V1 ; T2 protospacer + 8N PAM library (pbPOS T2)]
activity (1-depletion score) [2]: 0.93

GGAAGAGCAGAGCCUUGGUCUCGUUUGAGAGUCGUGCUGGAAACAACACGACGGGUUCAAAUACGGCUUUGCCAAAACCGCUGGUUUGAUCCAGCUUCACAGUGUGUGAGGGUAAAAAGUCCGCUAUGCGGACUUUUUUU / GGAAGAGCAGAGCCTTGGTCTCNNNNNNNN / NNNNNNNNGAGACCAAGGCTCTGCTCTTCC [T2 sgRNA 15 V1 ; T2 protospacer + 8N PAM library (pbPOS T2)]
activity (1-depletion score) [3]: 0.95

GGAAGAGCAGAGCCUUGGUCUCGUUUUGCUACCCUAAAUUAGAAAAAUAUUAGGACCUAGCAAAACAAGGCUUUAUGCCGAAAUCGGAGUCGACGGGCUCCUUUUUU / GGAAGAGCAGAGCCTTGGTCTCNNNNNNNN / NNNNNNNNGAGACCAAGGCTCTGCTCTTCC [T2 sgRNA 7 V1 ; T2 protospacer + 8N PAM library (pbPOS T2)]
activity (1-depletion score) [4]: 0.57
